Results as given in patent US20200405833A1 (AFFIMED, published 2020).
Each block holds one binder with its values, some of them ahead of it.

Key:
huCD16A = huCD16A (human, UniProt P08637 17-208, limits assumed); experiment: RIA assay on huCD16A with radioiodinated scFv-IgAB_02; RIA assay on huCD16A
human EGFR on cells [1] = target: T1, human EGFR on cells (human, UniProt P00533 25-1210); experiment: cell-based or functional assay
EGFR-mFc = target: T2, EGFR-mFc; experiment: ELISA, coated EGFR-mFc antigen, scFv-IgAb titrated, bound construct detected with biotinylated CD16-Fc and streptavidin-HRP
T2 construct: Coated at 2.5 µg/mL in ELISA; also called monomeric EGFR-mFc; EGFR-mFc antigen
Experimental: (§1) 96-well ELISA plates (Immuno MaxiSorp; Nunc) were coated overnight at 4° C. with recombinant antigen or antibodies in 100 mM Carbonate-bicarbonate buffer. […] After a blocking step with 3% (w/v) skim milk powder (Merck) dissolved in PBS, serial dilutions of the different antibodies or soluble antigens in PBS containing 0.3% (w/v) skim milk powder were incubated on the plates for 1.5 h at room temperature. After washing three times with 300 μL per well of PBS containing 0.1% (v/v) Tween 20, plates were incubated with detection antibodies for 1 h at room temperature. For the detection of His-tagged analytes, Penta-HIS-HRP (Qiagen) was used at 1:3000 dilution. […] After washing three times with 300 μL per well of PBS containing 0.1% (v/v) Tween 20, plates were incubated with Tetramethylbenzidine (TMB) substrate (Seramun) until colour development was clearly visible. The reaction was stopped through the addition of 100 μL per well of 0.5 M H₂SO₄. The absorbance was measured at 450 nm using a multilabel plate reader (Victor, Perkin Elmer).

huCD16A^RV-His = target: T3, huCD16A^RV-His (human); experiment: ELISA, coated EGFR/CD16A scFv-IgAb, soluble huCD16A^RV-His titrated (the concentration axis is that of the antigen), Penta-HIS-HRP per paragraph 126
T3 construct: soluble, His-tagged; also called CD16-His antigen
Experimental: as §1

human EGFR on cells [2] = target: T1, human EGFR on cells; experiment: flow cytometry on EGFR-expressing A-431 cells, 37° C.
human EGFR on cells [3] = target: T1, human EGFR on cells; experiment: cell-based or functional assay; remark: listed apart in the source
[4] = target: T4, CD16A on primary human NK-cells (human, UniProt P08637 17-254); experiment: flow cytometry on primary human NK-cells, 37°C, with 10 mg/mL polyclonal human IgG (Gammanorm); mean of 2 experiments
T4 construct: whole, on cells; also called FcγRIIIA
Experimental: (§2) After the last staining step, the cells were washed again and resuspended in 0.2 mL of FACS buffer containing 2 μg/mL propidium iodide (PI) (Sigma, cat.: P4170) in order to exclude dead cells. The fluorescence of 2-5×10³ living cells was measured using a Millipore Guava EasyCyte flow cytometer (Merck Millipore, Schwalbach, Germany). Mean fluorescence intensities of the cell samples were calculated using Incyte software (Merck Millipore, Schwalbach, Germany). After subtracting the fluorescence intensity values of the cells stained with the secondary and tertiary reagents alone, the values were used for non-linear regression analysis using the GraphPad Prism software (GraphPad Prism version 6.00 for Windows, GraphPad Software, La Jolla Calif. USA). For the calculation of KD, the equation for one-site-binding (hyperbola) was used.
(§3) To assess the impact of physiological concentrations of human IgG on the binding capacity of bispecific EGFR/CD16A antigen-binding proteins, binding assays with several bispecific EGFR/CD16A antigen-binding proteins on primary human NK-cells were performed in presence or absence of 10 mg/mL polyclonal human IgG as exemplarily shown in FIG. 10.

[5] = target: T4, CD16A on primary human NK-cells; experiment: flow cytometry on primary human NK-cells, 37°C, without IgG; mean of 2 experiments
Experimental: as §2, §3

human EGFR on cells [6] = target: T1, human EGFR on cells; experiment: cell-based or functional assay; remark: listed apart in the source
[7] = target: T5, Cynomolgus FcRn (FCGRT/B2M) (cynomolgus, UniProt Q8SPV9 24-297; Q8SPW0 21-119, biotin-labelled (Avi-Tag)); experiment: SPR (Biacore T200), pH 6.0, biotinylated FcRn captured, multi cycle kinetics, 1:1 model
T5 construct: Purchased; also called FcRn (FCGRT/B2M), Avi-Tag, Biotin-Labeled, (Cynomolgus) Acro Cat #FCM-C82W5
Experimental: (§4) Binding of EGFR/CD16A antigen-binding proteins to FcRn (human, cynomolgus, murine) was measured on a Biacore T200 Instrument at 25° C. using PBS-T buffer pH 6.0 as running buffer and for dilution (1×Gibco PBS, 0.005% Tween20, titrated to pH 6.0 using 4 M HCl). For this purpose, a Multi Cycle Kinetic experiments was performed using Biotin CAPture Kit (GE Healthcare). For activation of the sensor surface, Biotin CAPture reagent (GE Healthcare) was injected to Flow Cells Fc 1-4 (100 sec, 5 μL/min) resulting in a response of 2100 RU-2800 RU. Biotinylated FcRn of different species were injected to Flow Cell Fc 2 (5 μL/min) resulting in a response of about 8-15 RU. A dilution series of EGFR/CD16A antigen-binding proteins was in (pH 7.4) as running buffer and for dilution. […] Chip was regenerated using Regeneration solution (GE Healthcare) (10 μL/min, Flow cells 1-4, 120 sec). Sensorgrams are referenced by subtraction of zero concentration cycle and subtraction of signals in reference channel Fc 1 (Fc 2-1, Fc 3-1, Fc 4-1). […] Chip was regenerated using Regeneration solution (GE Healthcare) (10 μL/min, Flow cells 1-4, 120 sec). […] Binding kinetics were evaluated by fitting data to 1:1 Binding Model (Rmax and RI locally fitted) using Biacore T200 Evaluation Software.

Human FcRn (FCGRT/B2M) [8] = target: T6, Human FcRn (FCGRT/B2M) (human, UniProt P55899 24-297; P61769 21-119, biotin-labelled (site not stated)); experiment: as above
T6 construct: Purchased; also called FcRn (FCGRT/B2M), His-Tag, Biotin-Labeled, (Human) HiP Cat #71283

Mouse FcRn (FCGRT/B2M) [9] = target: T7, Mouse FcRn (FCGRT/B2M) (mouse, UniProt Q61559 22-297; P01887 21-119, biotin-labelled (Avi-Tag)); experiment: as above
T7 construct: Purchased; also called murine FcRn; murine FcRn receptor
T7 sequence (looked up): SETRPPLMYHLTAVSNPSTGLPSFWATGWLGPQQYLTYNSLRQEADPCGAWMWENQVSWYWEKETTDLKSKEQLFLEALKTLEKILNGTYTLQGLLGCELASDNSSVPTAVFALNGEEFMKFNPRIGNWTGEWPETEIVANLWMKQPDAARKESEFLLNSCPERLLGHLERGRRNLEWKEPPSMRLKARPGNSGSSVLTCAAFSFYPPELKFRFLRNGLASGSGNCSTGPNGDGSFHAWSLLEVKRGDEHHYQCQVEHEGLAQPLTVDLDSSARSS
T7 sequence (b2m, looked up): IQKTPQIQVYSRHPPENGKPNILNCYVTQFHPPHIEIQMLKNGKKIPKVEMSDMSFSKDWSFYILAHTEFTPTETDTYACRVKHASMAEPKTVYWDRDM
Experimental: as §4

human EGFR on cells [10] = target: T1, human EGFR on cells; experiment: saturation binding assay on A-431 cells with radioiodinated scFv-IgAB_02; saturation binding assay on A-431 cells
[11] = target: T5, Cynomolgus FcRn (FCGRT/B2M); experiment: SPR (Biacore T200), pH 6.0, biotinylated FcRn captured, multi cycle kinetics
Experimental: as §4

Human FcRn (FCGRT/B2M) [12] = target: T6, Human FcRn (FCGRT/B2M); experiment: as above
Experimental: as §4

Mouse FcRn (FCGRT/B2M) [13] = target: T7, Mouse FcRn (FCGRT/B2M); experiment: as above
Experimental: as §4

human EGFR on cells [14] = target: T1, human EGFR on cells; experiment: flow cytometry on HCT-116 cells, 37°C; mean of 2 experiments
Experimental: After the last staining step, the cells were washed again and resuspended in 0.2 mL of FACS buffer containing 2 μg/mL propidium iodide (PI) (Sigma, cat.: P4170) in order to exclude dead cells. The fluorescence of 2-5×10³ living cells was measured using a Millipore Guava EasyCyte flow cytometer (Merck Millipore, Schwalbach, Germany). Mean fluorescence intensities of the cell samples were calculated using the Incyte software (Merck Millipore, Schwalbach, Germany). After subtracting the fluorescence intensity values of the cells stained with the secondary and tertiary reagents alone, the values were used for non-linear regression analysis using the GraphPad Prism software (GraphPad Prism version 6.00 for Windows, GraphPad Software, La Jolla Calif. USA). For the calculation of KD, the equation for one-site-binding (hyperbola) was used.

CD16A-antigen (ELISA) = target: T8, CD16A-antigen (ELISA); experiment: ELISA, coated CD16A-Fc antigen, tandem diabody titrated (His-tagged analyte, Penta-HIS-HRP per paragraph 126)
T8 construct: also called CD16A-Fc
Experimental: as §1

EGFRvIII on CHO cells = target: T9, EGFRvIII on CHO cells (human, UniProt P00533 25-1210); experiment: flow cytometry on CHO cells expressing recombinant EGFRvIII, 37°C; apparent affinity
T9 construct: whole, on cells; the exon 2-7 deletion must be applied; also called EGFRvIII+ CHO cells
Experimental: (§5) After last staining step, the cells were washed again and resuspended in 0.2 mL of FACS buffer containing 2 μg/mL propidium iodide (PI) (Sigma, cat.: P4170) in order to exclude dead cells. The fluorescence of 2-5×10³ living cells was measured using a Beckman-Coulter FC500 MPL flow cytometer using the MXP software (Beckman-Coulter, Krefeld, Germany) or a Millipore Guava EasyCyte flow cytometer (Merck Millipore, Schwalbach, Germany). Mean fluorescence intensities of the cell samples were calculated using CXP software (Beckman-Coulter) or Incyte software (Merck Millipore, Schwalbach, Germany). After subtracting the fluorescence intensity values of the cells stained with the secondary and tertiary reagents alone, the values were used for non-linear regression analysis using the GraphPad Prism software (GraphPad Prism version 6.00 for Windows, GraphPad Software, La Jolla Calif. USA). For the calculation of KD, the equation for one-site-binding (hyperbola) was used.

human EGFR on cells [15] = target: T1, human EGFR on cells; experiment: flow cytometry on CHO cells expressing recombinant human EGFR, 37°C; apparent affinity
Experimental: as §5

human EGFR on cells [16] = target: T1, human EGFR on cells; experiment: cell-based or functional assay; remark: listed apart in the source
EGFR-antigen (ELISA) = target: T10, EGFR-antigen (ELISA); experiment: ELISA, coated EGFR-Fc antigen, tandem diabody titrated (His-tagged analyte, Penta-HIS-HRP per paragraph 126)
T10 construct: also called EGFR-Fc
Experimental: as §1

[17] = target: T4, CD16A on primary human NK-cells; experiment: flow cytometry on primary human NK-cells, 37° C., with 10 mg/mL gammanorm (polyclonal human IgG)
Experimental: as §2, §3

T5 sequence (Q8SPV9 24-297 limits assumed, chain 1 of 2): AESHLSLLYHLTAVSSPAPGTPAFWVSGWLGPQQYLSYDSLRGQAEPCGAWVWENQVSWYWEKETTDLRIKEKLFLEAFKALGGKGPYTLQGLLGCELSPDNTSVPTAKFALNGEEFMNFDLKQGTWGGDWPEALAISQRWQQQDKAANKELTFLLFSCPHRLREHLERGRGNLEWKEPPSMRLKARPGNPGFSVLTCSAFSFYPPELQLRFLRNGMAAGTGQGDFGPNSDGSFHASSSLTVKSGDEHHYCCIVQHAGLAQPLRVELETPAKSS
T5 sequence (Q8SPW0 21-119 limits assumed, chain 2 of 2): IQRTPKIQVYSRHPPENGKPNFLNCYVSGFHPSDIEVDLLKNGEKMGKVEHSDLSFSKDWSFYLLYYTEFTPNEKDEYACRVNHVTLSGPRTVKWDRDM

Kd (huCD16A): 0.729 nM | EC50 (read off the curve) (EGFR-mFc): ~0.02 µg/mL | EC50 (read off the curve) (huCD16A^RV-His): ~1 nM | EC50 (read off the curve) (human EGFR on cells [2]): ~2 nM | Kd [4]: 13.1 nM | Kd [5]: 8 nM | EC50 [µg/mL] on A-431 cells, inhibition of EGF-stimulated EGFR phosphorylation (phospho-EGFR ELISA) (human EGFR on cells [6]): 1520 µg/mL | EC50 [µg/mL] on A-549 cells, inhibition of EGF-stimulated EGFR phosphorylation (phospho-EGFR ELISA) (human EGFR on cells [6]): 478 µg/mL | Kd [7]: 842 nM | Kd (Human FcRn (FCGRT/B2M) [8]): 430 nM | Kd (Mouse FcRn (FCGRT/B2M) [9]): 180 nM | Kd (human EGFR on cells [10]): 6.98 nM
B1: scFv-IgAb_02 (bispecific antibody)
heavy: QVQLVQSGAEVKKPGESLKVSCKASGYTFTSYYMHWVRQAPGQGLEWMGIINPSGGSTSYAQKFQGRVTMTRDTSTSTVYMELSSLRSEDTAVYYCARGSAYYYDFADYWGQGTLVTVSSASTKGPSVFPLAPSSKSTSGGTAALGCLVKDYFPEPVTVSWNSGALTSGVHTFPAVLQSSGLYSLSSVVTVPSSSLGTQTYICNVNHKPSNTKVDKKVEPKSCDKTHTCPPCPAPEFEGGPSVFLFPPKPKDTLMISRTPEVTCVVVAVSHEDPEVKFNWYVDGVEVHNAKTKPREEQYNSTYRVVSVLTVLHQDWLNGKEYKCKVSNKALPAPIEKTISKAKGQPREPQVYTLPPSREEMTKNQVSLTCLVKGFYPSDIAVEWESNGQPENNYKTTPPVLDSDGSFFLYSKLTVDKSRWQQGNVFSCSVMHEALHNHYTQKSLSLSPGGGGGSGGGGSQVQLQESGPGLVKPSETLSLTCTVSGGSVSSGSYYWSWIRQPPGKGLEWIGYIYYSGSTNYNPSLKSRVTISVDTSKNQFSLKLSSVTAADTAVYYCARNPISIPAFDIWGQGTMVTVSSGGSGGSGGSGGSGGSGGSQPVLTQPPSVSVAPGKTARITCGGNNIGSKSVHWYQQKPGQAPVLVIYYDSDRPSGIPERFSGSNSGNTATLTISRVEAGDEADYYCQVWDTSSDHVLFGGGTKLTVL
light: SYVLTQPSSVSVAPGQTATISCGGHNIGSKNVHWYQQRPGQSPVLVIYQDNKRPSGIPERFSGSNSGNTATLTISGTQAMDEADYYCQVWDNYSVLFGGGTKLTVLGQPKAAPSVTLFPPSSEELQANKATLVCLISDFYPGAVTVAWKADSSPVKAGVETTTPSKQSNNKYAASSYLSLTPEQWKSHRSYSCQVTHEGSTVEKTVAPTECS
notes: Tetravalent, bispecific: anti-CD16A Fab arms, silenced human IgG1 Fc, anti-EGFR scFv fused C-terminally to CH3; also called EGFR/CD16A scFv-IgAb; scFv-IgAb_2
EC50 [pM] mean, 4 h calcein-release cytotoxicity, A-431 target cells, human NK-cells E:T 5:1 (human EGFR on cells [1]): 2.1 pM | EC50 [pM] mean, 4 h calcein-release cytotoxicity, HCT-116 target cells, human NK-cells E:T 5:1 (human EGFR on cells [3]): 4.3 pM

binding result [11]: no binding (tested: up to 3000 nM) | binding result (Human FcRn (FCGRT/B2M) [12]): no binding (tested: up to 3000 nM) | binding result (Mouse FcRn (FCGRT/B2M) [13]): no binding (tested: up to 3000 nM) | Kd (human EGFR on cells [14]): 0.3 nM | EC50 (read off the curve) (CD16A-antigen (ELISA)): ~0.03 µg/mL | EC50 (read off the curve) (human EGFR on cells [2]): ~2 nM | Kd (EGFRvIII on CHO cells): 0.5 nM | Kd (human EGFR on cells [15]): 0.7 nM | Kd [4]: 8.8 nM | Kd [5]: 7.7 nM | EC50, inhibition of EGF-induced EGFR phosphorylation (phospho-EGFR ELISA, A-431 cells), Exp.1 (human EGFR on cells [16]): > 100 µg/mL | EC50, inhibition of EGF-induced EGFR phosphorylation (phospho-EGFR ELISA, A-431 cells), Exp.2 (human EGFR on cells [16]): > 100 µg/mL | EC50 (read off the curve) (EGFR-antigen (ELISA)): ~0.02 µg/mL | EC50 (read off the curve) [17]: ~10 nM
B2: EGFR/CD16A tandem diabody (bispecific antibody)
chain: QVQLQESGPGLVKPSETLSLTCTVSGGSVSSGSYYWSWIRQPPGKGLEWIGYIYYSGSTNYNPSLKSRVTISVDTSKNQFSLKLSSVTAADTAVYYCARNPISIPAFDIWGQGTMVTVSSGGSGGSGGSSYVLTQPSSVSVAPGQTATISCGGHNIGSKNVHWYQQRPGQSPVLVIYQDNKRPSGIPERFSGSNSGNTATLTISGTQAMDEADYYCQVWDNYSVLFGGGTKLTVLGGSGGSQVQLVQSGAEVKKPGESLKVSCKASGYTFTSYYMHWVRQAPGQGLEWMGIINPSGGSTSYAQKFQGRVTMTRDTSTSTVYMELSSLRSEDTAVYYCARGSAYYYDFADYWGQGTLVTVSSGGSGGSGGSQPVLTQPPSVSVAPGKTARITCGGNNIGSKSVHWYQQKPGQAPVLVIYYDSDRPSGIPERFSGSNSGNTATLTISRVEAGDEADYYCQVWDTSSDHVLFGGGTKLTVLAAAGSHHHHHH
notes: no Fc; also called Tandem diaody
EC50 [pM] mean, 4 h calcein-release cytotoxicity, A-431 target cells, human NK-cells E:T 5:1 (human EGFR on cells [1]): 1.1 pM | EC50 [pM] mean, 4 h calcein-release cytotoxicity, HCT-116 target cells, human NK-cells E:T 5:1 (human EGFR on cells [3]): 1.5 pM
